Numbering of substitutions follows the chain as printed.
What was measured:
Experiment in all cases: cleavage_in_vitro
[1] = system: T1, BsmBI (Bacillus stearothermophilus); conditions: NEB4, 55 C, Mg2+
T1 sequence: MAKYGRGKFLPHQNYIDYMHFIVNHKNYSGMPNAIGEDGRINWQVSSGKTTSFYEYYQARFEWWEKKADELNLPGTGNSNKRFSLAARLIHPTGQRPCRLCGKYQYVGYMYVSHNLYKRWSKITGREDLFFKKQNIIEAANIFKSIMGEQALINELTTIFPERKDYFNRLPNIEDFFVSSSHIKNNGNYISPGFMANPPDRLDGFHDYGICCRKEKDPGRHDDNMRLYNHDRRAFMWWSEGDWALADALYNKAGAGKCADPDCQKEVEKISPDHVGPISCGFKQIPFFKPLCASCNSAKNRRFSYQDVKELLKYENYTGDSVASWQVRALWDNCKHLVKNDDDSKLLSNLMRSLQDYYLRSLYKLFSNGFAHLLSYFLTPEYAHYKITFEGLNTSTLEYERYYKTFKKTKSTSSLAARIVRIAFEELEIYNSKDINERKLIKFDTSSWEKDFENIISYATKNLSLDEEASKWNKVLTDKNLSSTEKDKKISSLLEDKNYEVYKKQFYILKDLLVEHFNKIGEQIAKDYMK

[2] = target: EcoRI(K62A) K62A (Escherichia coli RY13) (UniProt P00642); conditions: NEB4, 37 C, Mg2+
[3] = target: T2, HpaI (Haemophilus parainfluenzae) (UniProt P29537); conditions: NEB4, 37 C, Mg2+
T2 sequence: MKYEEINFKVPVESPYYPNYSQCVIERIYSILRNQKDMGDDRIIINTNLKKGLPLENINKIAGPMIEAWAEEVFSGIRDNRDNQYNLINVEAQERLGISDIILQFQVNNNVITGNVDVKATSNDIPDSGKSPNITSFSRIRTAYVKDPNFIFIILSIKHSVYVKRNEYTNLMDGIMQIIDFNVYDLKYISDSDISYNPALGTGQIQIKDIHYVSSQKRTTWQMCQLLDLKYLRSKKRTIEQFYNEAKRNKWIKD

[4] = system: T3, NcoI (Nocardia corallina); conditions: NEB4, 37 C, Mg2+
T3 sequence: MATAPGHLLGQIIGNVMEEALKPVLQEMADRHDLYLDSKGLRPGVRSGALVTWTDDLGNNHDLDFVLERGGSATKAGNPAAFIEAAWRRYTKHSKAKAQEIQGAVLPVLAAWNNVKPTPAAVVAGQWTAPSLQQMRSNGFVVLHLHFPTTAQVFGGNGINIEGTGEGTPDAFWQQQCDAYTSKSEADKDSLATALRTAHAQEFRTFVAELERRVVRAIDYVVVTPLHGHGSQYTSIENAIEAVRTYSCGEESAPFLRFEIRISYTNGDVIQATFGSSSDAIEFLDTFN

[5] = target: T4, PstI (Providencia stuartii 164) (UniProt P00640); conditions: NEB4, 37 C, Mg2+
T4 sequence: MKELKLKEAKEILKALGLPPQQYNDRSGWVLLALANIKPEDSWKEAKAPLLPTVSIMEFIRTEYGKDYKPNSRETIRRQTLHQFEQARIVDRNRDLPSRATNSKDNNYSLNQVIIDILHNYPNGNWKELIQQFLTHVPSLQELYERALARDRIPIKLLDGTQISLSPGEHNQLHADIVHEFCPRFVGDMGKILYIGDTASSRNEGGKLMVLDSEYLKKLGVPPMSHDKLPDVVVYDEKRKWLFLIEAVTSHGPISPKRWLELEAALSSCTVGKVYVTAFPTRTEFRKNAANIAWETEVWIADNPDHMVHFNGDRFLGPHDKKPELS

[6] = target: T5, PstI-HF D91A (Providencia stuartii 164) (UniProt P00640); conditions: NEB4, 37 C, Mg2+
T5 sequence: T4 sequence with D91A

[7] = system: T6, SbfI (Streptomyces species Bf-61?); conditions: NEB4, 37 C, Mg2+
T6 sequence: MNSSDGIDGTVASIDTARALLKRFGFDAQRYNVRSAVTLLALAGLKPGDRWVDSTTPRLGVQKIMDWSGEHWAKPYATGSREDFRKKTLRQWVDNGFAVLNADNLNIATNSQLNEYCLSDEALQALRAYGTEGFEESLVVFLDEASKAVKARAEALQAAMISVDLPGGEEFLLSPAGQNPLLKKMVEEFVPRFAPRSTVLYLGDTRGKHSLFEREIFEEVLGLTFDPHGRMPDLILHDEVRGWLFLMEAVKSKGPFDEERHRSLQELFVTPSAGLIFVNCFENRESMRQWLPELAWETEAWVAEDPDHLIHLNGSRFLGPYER

[8] = system: T7, SbfI-HF K251A (Streptomyces species Bf-61?); conditions: NEB4, 37 C, Mg2+
T7 sequence: T6 sequence with K251A

[9] = system: T8, SphI (Streptomyces phaeochromogenes); conditions: NEB4, 37 C, Mg2+
T8 sequence: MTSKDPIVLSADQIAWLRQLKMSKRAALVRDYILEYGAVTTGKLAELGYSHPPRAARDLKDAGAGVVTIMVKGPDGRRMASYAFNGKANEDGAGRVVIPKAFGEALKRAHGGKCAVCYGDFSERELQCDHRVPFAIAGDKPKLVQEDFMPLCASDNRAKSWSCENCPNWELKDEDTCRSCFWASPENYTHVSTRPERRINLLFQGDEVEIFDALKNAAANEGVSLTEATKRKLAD

Which results are given for lambda DNA?
activity (fidelity index) [1]: 4; activity (fidelity index) [2]: 32000; activity (fidelity index) [3]: 16; activity (fidelity index) [4]: 32; activity (fidelity index) [5]: 8; activity (fidelity index) [6]: 4000; activity (fidelity index) [7]: 8; activity (fidelity index) [8]: 250; activity (fidelity index) [9]: 16
